Data on 1 substance can be found in IntAct's records for PubMed 21293379.

For this assay, the target named is nsd2_human NSD2 (UniProt O96028).
Sequence of UniProt O96028 (O96028 whole entry): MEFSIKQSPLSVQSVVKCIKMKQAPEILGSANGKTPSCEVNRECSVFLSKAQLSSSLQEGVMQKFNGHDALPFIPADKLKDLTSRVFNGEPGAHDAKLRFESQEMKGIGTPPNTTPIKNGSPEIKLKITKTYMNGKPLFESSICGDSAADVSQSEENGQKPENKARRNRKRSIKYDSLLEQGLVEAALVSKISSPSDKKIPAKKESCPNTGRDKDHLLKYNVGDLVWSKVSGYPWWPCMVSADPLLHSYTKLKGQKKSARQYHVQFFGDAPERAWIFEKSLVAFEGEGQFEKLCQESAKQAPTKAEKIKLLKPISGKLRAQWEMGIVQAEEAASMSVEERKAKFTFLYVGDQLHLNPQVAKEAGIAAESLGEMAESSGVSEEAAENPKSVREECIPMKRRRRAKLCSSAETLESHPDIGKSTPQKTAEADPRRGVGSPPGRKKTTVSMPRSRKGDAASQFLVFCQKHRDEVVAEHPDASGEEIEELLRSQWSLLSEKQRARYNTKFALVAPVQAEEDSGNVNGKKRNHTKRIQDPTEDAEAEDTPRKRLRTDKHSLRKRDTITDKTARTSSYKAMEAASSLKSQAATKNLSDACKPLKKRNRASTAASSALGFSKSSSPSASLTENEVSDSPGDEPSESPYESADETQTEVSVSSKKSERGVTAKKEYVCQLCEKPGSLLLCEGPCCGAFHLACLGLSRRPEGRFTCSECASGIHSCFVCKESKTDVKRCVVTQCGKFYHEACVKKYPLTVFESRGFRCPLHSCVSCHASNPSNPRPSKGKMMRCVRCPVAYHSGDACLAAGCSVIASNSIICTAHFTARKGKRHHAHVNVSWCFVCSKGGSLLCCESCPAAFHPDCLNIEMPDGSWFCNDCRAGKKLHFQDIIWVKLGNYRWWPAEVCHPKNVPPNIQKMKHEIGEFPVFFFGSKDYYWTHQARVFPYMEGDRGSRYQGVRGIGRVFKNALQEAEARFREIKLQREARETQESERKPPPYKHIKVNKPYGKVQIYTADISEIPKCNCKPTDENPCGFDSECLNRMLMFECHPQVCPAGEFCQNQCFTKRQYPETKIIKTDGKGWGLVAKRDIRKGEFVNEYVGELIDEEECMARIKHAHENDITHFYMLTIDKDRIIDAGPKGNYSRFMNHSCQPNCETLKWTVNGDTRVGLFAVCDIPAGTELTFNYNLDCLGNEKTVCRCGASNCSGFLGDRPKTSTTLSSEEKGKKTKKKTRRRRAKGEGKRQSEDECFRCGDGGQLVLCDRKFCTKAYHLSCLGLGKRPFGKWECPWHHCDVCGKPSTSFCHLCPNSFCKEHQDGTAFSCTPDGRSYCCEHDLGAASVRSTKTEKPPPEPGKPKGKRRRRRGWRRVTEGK

With “Mediator of DNA damage checkpoint protein 1 (Homo sapiens), Q14676 K1936M”, the “effect of a mutation on the interaction” value is “disrupting interaction”.
